Our source for the Km values is patent publication US11925667B2, “Engineered therapeutic probiotic system and method” (priority 2018, dated 2024).

Substrate in data set [1]: C=CC/C(=N/OS(=O)(=O)O)S[C@@H]1O[C@H](CO)[C@@H](O)[C@H](O)[C@H]1O
As to the kind of experiment: Myrosinase activity assay (glucose release from sinigrin hydrolysis), I1. It is filed as biochemical, Armoracia rusticana. An excerpt: In a preferred embodiment, the myrosinases derived from Armoracia rusticana (I1) and Brassica oleacea (A6) have a better stability and catalytic efficiency in various temperatures and pH values when compared with those derived from BMY1 and TGG1 (Table 1). In a preferred illustrative embodiment I1 myrosinase is selected owing to its Km value and improved kcat at the colorectal ambient temperature and pH (FIG. 2c, 2d and Table 1). By comparing the modeled-I1 myrosinase protein structure against that of the BMY1 myrosinase, the critical side chain residues involved in glucose-ring recognition and the glutamic acid that served as a nucleophile during catalysis are conserved. According to the claimed invention the improved catalytic efficiency of the I1 myrosinase is correlated to its pI value (pI=7.90) and the overall positively charged surface (FIG. 8) that contributes to better structural stability.
(§1) Gene cloning, protein expression and purification. Myrosinase genes are optimized for E. coli expression and cloned into the pET28b expression vector. The plasmids are transformed into E. coli BL21 (DE3) cultured in lysogeny broth (LB) (BD, Le Pont de Claix, France) at 37° C., 225 rpm to OD600 0.6 followed by 0.5 mM isopropyl β-D-1-thiogalactopyranoside (IPTG) induction at 16° C., 180 rpm for 16 hours. Cells are harvested, resuspended in lysis buffer (50 mM Tris-Cl, 300 mM NaCl, 10% glycerol, 1 mM dithiothreitol [DTT], pH 8.0) and lysed using Emulsiflex C-3 (Avestin). Expressed myrosinases are purified by IMAC Ni-NTA purification followed by Hi-Load Superdex 200 size exclusion column chromatography (GE, Uppsala, Sweden). The purified protein is concentrated and stored at −80° C. Pilot scale protein purification and enzymatic assay is conducted.
(§2) Myrosinase screening assay. The enzymatic reaction is measured for the release of glucose resulting from sinigrin hydrolysis. The reaction is conducted in sodium phosphate-buffered solution supplied in the Amplex® Red Glucose/Glucose Oxidase Assay Kit (Thermo Fisher Scientific, Geel, Belgium). The reaction buffer is prepared at different pH values (6.0, 6.5, 7.4 and 8.0) and at different reaction temperatures (34° C., 37° C., and 40° C.). The reaction is prepared using 0.1 μM purified myrosinase added to 1× Amplex® Red Glucose Assay reaction mixture and was kick-started with the corresponding concentration of sinigrin. The reaction can be measured at 560 nm absorbance and fluorescence (λex=540 nm, λem=590 nm) using a Synergy H1 Multi-Mode microtiter plate reader (BioTek®, Winooski, USA). The reaction initial velocity (VO) is determined and fitted into a Michaelis-Menten curve. Vmax and KM are determined by fitting into the Michaelis-Menten equation (Eq. 1) using GraphPad Prism Software. ^v=Vmax*[Sinigrin]/(KM+[Sinigrin]) (Eq.1)
(§3) Table S1|Myrosinase activity assay screening under various pH and temperature conditions (n=3 independent experiments, each measurement performed in triplicates; mean[…].).

Substrate in data set [2]: C=CC/C(=N/OS(=O)(=O)O)S[C@@H]1O[C@H](CO)[C@@H](O)[C@H](O)[C@H]1O
As to the kind of experiment: Myrosinase activity assay (glucose release from sinigrin hydrolysis), BMY1. The format is biochemical, Brevicoryne brassicae. The procedure:
Screening for improved β-thioglucosidase. The activity and stability of myrosinase, a β-thioglucosidase that hydrolyzes glucosinolate to sulforaphane, varies at differing pH and temperature; in a preferred embodiment the selected enzyme needs to function under physiological colorectal conditions. The healthy colon pH averages 6.6, while it is 7.0 and 6.7 in patients with adenoma and carcinoma, respectively. In addition, the temperature of the human intestinal tract ranges from 36° C. to 40° C. depending on the individual's metabolic state. In the illustrative example five plant-derived myrosinase orthologues with minimal glycosylation sites and the absence of the co-factor-binding sites using the BLAST search and the Enzyme Function Initiative-Enzyme Similarity Tool (EFI-EST), are compared to the well-characterized myrosinases from Brevicoryne brassicae (BMY1) and Arabidopsis thaliana (TGG1) (FIG. 2a and FIG. 7).
as §1, §2, §3

The mark [3] stands for this setting: other: pH 6.0, 37° C., pH 6.0, 37.0 °C.
The mark [4] stands for this setting: other: pH 6.5, 37° C., pH 6.5, 37.0 °C.
The mark [5] stands for this setting: other: pH 7.4, 34° C., pH 7.4, 34.0 °C.
[6] abbreviates: other: pH 7.4, 37° C., pH 7.4, 37.0 °C.
[7] abbreviates: other: pH 7.4, 40° C., pH 7.4, 40.0 °C.
Setting [8] is: other: pH 8.0, 37° C., pH 8.0, 37.0 °C.

B1: Armoracia rusticana myrosinase I1, SEQ ID NO: 6 (Armoracia rusticana) (protein)
chain: QNVCNPACKAKEPFNCDNTLTFNQTGFPKNFTFGAATSAYQIEGAAHRALNGWDYFTHRYPEKVPDRSSGDLACDSYDLYKDDVKLLKRMNVQAYRLSIAWSRVLPKGRLIGGVDENGITYYNNLINELKANGIEPYVTIFHWDVPQTLEDEYGGFLSPRIVEDFTNFAELLFQRFGDRVKFWITLNQPYSLATKGYGDGSYPPGRCTDCEFGGDSGTEPYIVAHHQLLAHAETVSLYRKRYQKFQGGKIGTTLIGRWFQPLNQTSNLDKAAAKRAFDFFVGWFLDPLVYGEYPKIMKEMVGDRMPKFTPQESDLVKGSLDFLGLNYYVTQYATDAPPSIPTQPSAITDPRVTLGYYRNGIPIGVQAASFVYYPTGFRQILNHIKDNYKNPLTYITENGVADFGNLTLANALADIGRIQNHCSHLSCLKCAIADGCNVGGYFAWSFMDNYEFGNGYTLRFGMNWVNFTNPADRKQKDSGKWFSKFLAK
notes: elsewhere used as YebF-I1 fusion
As for B1, the Km (usually the concentration of substrate that gives half-maximal velocity) was 192 ± 40 µM in data set [1] (setting [3]); 183 ± 19 µM in data set [1] (setting [4]); 49 ± 4 µM in data set [1] (setting [5]); 87 ± 7 µM in data set [1] (setting [6]); 87 ± 9 µM in data set [1] (setting [7]); 192 ± 17 µM in data set [1] (setting [8]).

B2: Brevicoryne brassicae myrosinase BMY1 (Brevicoryne brassicae) (protein)
chain: MDYKFPKDFMFGTSTASYQIEGGWNEDGKGENIWDRLVHTSPEVIKDGTNGDIACDSYHKYKEDVAIIKDLNLKFYRFSISWARIAPSGVMNSLEPKGIAYYNNLINELIKNDIIPLVTMYHWDLPQYLQDLGGWVNPIMSDYFKEYARVLFTYFGDRVKWWITFNEPIAVCKGYSIKAYAPNLNLKTTGHYLAGHTQLIAHGKAYRLYEEMFKPTQNGKISISISGVFFMPKNAESDDDIETAERANQFERGWFGHPVYKGDYPPIMKKWVDQKSKEEGLPWSKLPKFTKDEIKLLKGTADFYALNHYSSRLVTFGSDPNPNFNPDASYVTSVDEAWLKPNETPYIIPVPEGLRKLLIWLKNEYGNPQLLITENGYGDDGQLDDFEKISYLKNYLNATLQAMYEDKCNVIGYTVWSLLDNFEWFYGYSIHFGLVKIDFNDPQRTRTKRESYTYFKNVVSTGKP
B2: the Km stood at 153 ± 17 µM in data set [2] (setting [3]); 399 ± 86 µM in data set [2] (setting [4]); 76 ± 6 µM in data set [2] (setting [5]); 67 ± 1 µM in data set [2] (setting [6]); 342 ± 67 µM in data set [2] (setting [7]); 217 ± 87 µM in data set [2] (setting [8]).
